The results in this text go back to patent US20100204100A1, “BIOLOGICAL AGENTS ACTIVE IN CENTRAL NERVOUS SYSTEM” (THE JOHNS HOPKINS UNIVERISTY, priority 2007, published 2010).

“Also recorded” adds a separate entry of the source.

In one data set the test system is cultured spinal neurons. The data set can be described thus: In vitro delivery of Tat fusion peptide in cultured spinal neurons (Western blot, anti-His antibody). The data set is classed as cell-based. The conditions noted are these: 10 μM peptide, 30 min incubation, cultured mouse spinal neurons. Here is the method: In Vitro Delivery of Tat Fusion Peptide in Cultured Spinal Neurons. The intracellular delivery of Tat fusion peptide was assessed by Western blot analysis 30 min after application of 10 μM Tat-PSD-95 PDZ2 to cultured spinal neurons. The same dose of PSD-95 PDZ2 without Tat served as a control. Spinal cord neuronal cultures were prepared as previously described (O'Brien, et al., 1997) with minor modification. In brief, embryonic day 14 mouse spinal cord was digested for 45 min at 34° C. Cells were gently dissociated with a 5-ml pipette, filtered through a 70-μm filter, and centrifuged through a solution of 1% soybean trypsin inhibitor and 1% bovine serum albumin at 80×g for 10 min. High-density cultures were plated at 2 million cells/60-mm dish. Cell lysates from high-density cultures were solubilized in 1% Triton X-100/0.2% sodium dodecyl sulfate (SDS) and subjected to SDS-polyacrylamide gel electrophoresis (SDS-PAGE). Proteins were immunoblotted with monoclonal anti-His antibody (Sigma) and visualized with enhanced chemiluminescence (Amersham Biosciences, Piscataway, N.J.).

Data set [1] has as its target T1, interactions between NMDA receptor NR2B and PSD-95 protein (Mus musculus, UniProt Q01097).
T1 construct: from tissue; host or cells: NR2B: solubilized membrane fraction of mouse spinal lumbar enlargement
Kind of data set: In vitro binding assay (GST pull-down) with GST-PSD-95 PDZ1,2 and spinal membrane fraction. Particulars: for effect on interactions between GST-PSD-95 PDZ1,2 and NR2B (amount of NR2B pulled down): preincubation with different doses of peptide, 30 min; for effect on interactions between NMDAR NR2 subunits and PSD-95: summary of GST pull-down and co-immunoprecipitation (FIG. 2). As for the experimental part: In Vitro and In Vivo Binding Assays. […] Membrane-bound proteins from the spinal lumbar enlargement segments were extracted as described previously (Tao, et al., 2003a). For in vitro binding experiments (GST pull-down), the solubilized membrane fraction and GST fusion peptide were first preincubated with different concentrations of Tat-PSD-95 PDZ2 at room temperature for 30 min. Then the membrane fraction was mixed with the GST fusion peptide at room temperature for 1 h. The resin was washed five times with washing buffer (PBS plus 500 mM NaCl and 0.1% Triton X-100) and then boiled in 1×SDS-PAGE sample buffer to elute the bound proteins. After being separated by electrophoresis, the proteins were detected by immunoblotting with anti-GST antibody (Santa Cruz Biotechnology, Santa Cruz, Calif.) and anti-NR2B antibody (Upstate Biotechnology, Lake Placid, N.Y.). For in vivo binding experiments (co-immunoprecipitation), 5 μg of the affinity-purified rabbit NR2A/2B antibody (Chemicon, Temecula, Calif.) was incubated with 100 μl of protein A-Sepharose slurry for 1 h, and the complex was spun down at 2000 rpm for 4 min. The solubilized membrane fraction (500 μg) from the different groups of treated mice as mentioned-above then was added to the Sepharose beads, and the mixture was incubated for 2-3 h at 4° C. The mixture was washed once with 1% Triton X-100 in immunoprecipitation buffer [containing (in mM): 137 sodium chloride, 2.7 potassium chloride, 4.3 disodium hydrogen phosphate, 1.4 potassium dihydrogen phosphate, 5 ethylene glycol tetraacetic acid, 1 sodium vanadate, 10 sodium pyrophosphate, 50 sodium fluoride, 0.1 phenylmethylsulfonyl fluoride, and 20 U/ml Trasylol], twice with 1% Triton X-100 in immunoprecipitation buffer plus 300 mM sodium chloride, and three times with immunoprecipitation buffer. The proteins were separated by SDS-PAGE and detected by NR2A/2B or PSD-95 antibody (Upstate Biotechnology, Lake Placid, N.Y.). As a positive control (input), 50 μg of the solubilized membrane fraction was loaded onto the gel.

Data set [2] is described as follows: Baseline paw withdrawal threshold after peptide injection. The data set is classed as in vivo, mouse. Particulars: mice without CFA, vs vehicle. Here is the method:
Behavioral Analysis. Mechanical sensitivity of the mice was measured with von Frey filaments (Stoelting, Wood Dale, Ill.) as described previously (Yang and Gereau, 2003). Mice were placed in Plexiglas testing boxes with a 1×1 cm^2 wire-mesh grid floor and habituated for 3 h before experiments. Each von Frey filament was applied to the mouse hind paw in ascending order until it bent at approximately 30° for about 3 s. The smallest filament that evoked a paw withdrawal response was taken as the mechanical threshold (paw withdrawal threshold). Similar sites were selected for measuring mechanical thresholds in all tested animals, and the thresholds were measured at approximately the same site throughout the experiment for each individual animal. Two to three measurements were made before CFA or fusion peptides injection, and the average was calculated as the baseline. Established inflammatory pain behaviors were induced by intraplantar injection of CFA solution (20 μl, 1 mg/ml). […] The effect of Tat fusion peptide on CFA-induced established inflammatory pain behaviors was expressed as % of baseline.

Data set [3] can be described thus: Tests for locomotor function (placing, grasping, righting reflexes). The conditions noted are these: unanesthetized mice, 4 h after intraperitoneal injection, vs vehicle. The data set is classed as in vivo, mouse. The text has this: Tests for Locomotor Function. Four hours after intraperitoneal injection of Tat fusion peptides, their effects on locomotor function were examined with the following tests as described previously (Coderre and Van, 1,1994; Tao, et al., 2003a). 1) Placing reflex: The mouse was held with hind limbs slightly lower than forelimbs and the dorsal surface of the hind paws was brought into contact with the edge of a table. The experimenter recorded whether the mouse placed its hind paws on the table surface reflexively; 2) Grasping reflex: The mouse was placed on a wire grid and the experimenter recorded whether the hind paws grasped the wire on contact; and 3) Righting reflex: The mouse was placed on its back on a flat surface and the experimenter noted whether it immediately assumed the normal upright position.
The effects of Tat fusion peptides on locomotor function were examined 4 h after intraperitoneal injection. The following tests were performed as described previously^23. 1) Placing reflex: The mouse was held with hind limbs slightly lower than forelimbs, and the dorsal surface of the hind paws was brought into contact with the edge of a table. The experimenter recorded whether the mouse placed its hind paws on the table surface reflexively; 2) Grasping reflex: The mouse was placed on a wire grid, and the experimenter recorded whether the hind paws grasped the wire on contact.

T1 sequence (Q01097 27-1482, other chains not shown): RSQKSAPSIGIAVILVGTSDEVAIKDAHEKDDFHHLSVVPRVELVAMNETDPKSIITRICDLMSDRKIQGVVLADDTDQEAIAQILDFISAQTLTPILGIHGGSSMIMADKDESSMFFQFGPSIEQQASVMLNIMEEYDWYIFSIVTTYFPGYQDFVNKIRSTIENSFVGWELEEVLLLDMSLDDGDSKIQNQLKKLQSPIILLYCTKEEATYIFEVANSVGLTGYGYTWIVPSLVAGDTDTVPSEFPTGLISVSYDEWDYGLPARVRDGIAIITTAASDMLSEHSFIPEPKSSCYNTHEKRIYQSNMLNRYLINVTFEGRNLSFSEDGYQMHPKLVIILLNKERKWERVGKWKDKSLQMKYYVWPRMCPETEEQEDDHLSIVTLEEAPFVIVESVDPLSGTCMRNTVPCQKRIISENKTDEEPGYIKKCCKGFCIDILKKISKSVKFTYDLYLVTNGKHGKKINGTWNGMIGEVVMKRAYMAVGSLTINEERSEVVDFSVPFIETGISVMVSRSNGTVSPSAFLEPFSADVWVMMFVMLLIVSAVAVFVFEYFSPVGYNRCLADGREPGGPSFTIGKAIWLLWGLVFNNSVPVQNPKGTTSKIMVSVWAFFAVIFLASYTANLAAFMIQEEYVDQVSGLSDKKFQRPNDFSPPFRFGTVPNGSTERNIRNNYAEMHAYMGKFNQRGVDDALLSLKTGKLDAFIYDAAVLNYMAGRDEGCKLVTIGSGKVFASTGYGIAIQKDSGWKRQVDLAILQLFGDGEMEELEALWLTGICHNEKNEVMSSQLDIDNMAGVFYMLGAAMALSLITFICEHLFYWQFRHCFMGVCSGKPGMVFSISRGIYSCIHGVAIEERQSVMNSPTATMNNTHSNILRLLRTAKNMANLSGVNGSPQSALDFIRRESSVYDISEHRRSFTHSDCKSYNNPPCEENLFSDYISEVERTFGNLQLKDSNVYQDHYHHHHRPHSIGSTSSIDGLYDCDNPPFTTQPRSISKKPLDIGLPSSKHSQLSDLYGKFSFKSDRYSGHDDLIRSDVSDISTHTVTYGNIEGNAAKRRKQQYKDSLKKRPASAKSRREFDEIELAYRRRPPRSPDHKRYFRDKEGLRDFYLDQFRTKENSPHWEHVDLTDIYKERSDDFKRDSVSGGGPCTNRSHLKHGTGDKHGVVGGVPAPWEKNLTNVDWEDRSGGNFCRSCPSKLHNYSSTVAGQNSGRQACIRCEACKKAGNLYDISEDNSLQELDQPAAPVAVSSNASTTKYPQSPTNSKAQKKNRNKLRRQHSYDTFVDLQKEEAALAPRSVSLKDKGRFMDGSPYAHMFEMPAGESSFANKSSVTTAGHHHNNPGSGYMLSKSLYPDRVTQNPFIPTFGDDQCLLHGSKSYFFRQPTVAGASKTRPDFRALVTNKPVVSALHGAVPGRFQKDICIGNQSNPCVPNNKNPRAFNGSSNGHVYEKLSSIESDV

B1: Tat-PSD-95 PDZ2: His-tagged fusion peptide: HIV Tat minimal transduction domain (residues 47-57) fused to the second PDZ domain of PSD-95 (protein)
chain: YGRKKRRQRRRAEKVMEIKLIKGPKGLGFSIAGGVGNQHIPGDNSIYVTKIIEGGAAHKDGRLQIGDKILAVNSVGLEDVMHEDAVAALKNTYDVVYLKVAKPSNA
Take B1: the “His-peptide detected in neurons (intracellular delivery), Western blotting with anti-His antibody” value with cultured spinal neurons is “detected only; also recorded: only detected”. Moreover, the “effect on NR2B being pulled down at high dose” value in data set [1] (16 μg peptide) was “completely prevented”. In addition, in data set [1], the “effect on interactions between GST-PSD-95 PDZ1,2 and NR2B (amount of NR2B pulled down)” value is “dose-dependently inhibited; also recorded: dose-dependently reduced”; the “effect on interactions between NMDAR NR2 subunits and PSD-95” value was “markedly disrupted”. The “effect on baseline paw withdrawal threshold” value in data set [2] is “no significant effect”. The “effect on locomotor function (placing, grasping, righting reflexes)” value in data set [3] is listed as “no effect; also recorded: did not show any effect”.

B2: mutated Tat-PSD-95 PDZ2: Control fusion peptide: Tat-PSD-95 PDZ2 with three sites critical for NMDAR/PSD-95 interaction mutated (K165T, L170R and H182L) (protein)
chain: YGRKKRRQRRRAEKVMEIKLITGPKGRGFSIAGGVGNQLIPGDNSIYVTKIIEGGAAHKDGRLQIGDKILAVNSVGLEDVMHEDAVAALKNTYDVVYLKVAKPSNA
Turning to B2, in data set [1], the “effect on interactions between GST-PSD-95 PDZ1,2 and NR2B (amount of NR2B pulled down)” value is listed as “no effect”; the “effect on interactions between NMDAR NR2 subunits and PSD-95” value is “no effect”.
